Measured values from PMC7241785.

Biological target: T1, GST-Flag-SASPase 28 kDa recombinant protein (human) (UniProt Q53RT3)
T1 sequence: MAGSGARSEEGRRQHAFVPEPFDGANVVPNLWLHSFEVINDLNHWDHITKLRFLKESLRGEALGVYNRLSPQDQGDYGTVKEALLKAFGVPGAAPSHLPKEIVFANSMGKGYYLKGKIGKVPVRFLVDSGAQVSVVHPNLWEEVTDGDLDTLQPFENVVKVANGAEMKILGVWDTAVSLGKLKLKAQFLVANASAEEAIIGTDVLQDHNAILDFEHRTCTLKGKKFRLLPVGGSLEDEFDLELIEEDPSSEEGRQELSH

B1: recombinant protein FLG2Nter (aa 2-213) (domain or fragment)
chain: TDLLRSVVTVIDVFYKYTKQDGECGTLSKGELKELLEKELHPVLKNPDDPDTVDVIMHMLDRDHDRRLDFTEFLLMIFKLTMACNKVLSKEYCKASGSKKHRRGHRHQEEESETEEDEEDTPGHKSGYRHSSWSEGEEHGYSSGHSRGTVKCRHGSNSRRLGRQGNLSSSGNQEGSQKRYHRSSCGHSWSGGKDRHGSSSVELRERINKSHI
- SASPase activity on Dabcyl-QIDRIMEK-Glu(Edans)-NH2 (0.1 mM), pH 5.5, 0.5 μM SASPase 28, FLG2Nter at ratios from 1.25 to 10; fold against the protease alone: 10 fold
